# Reference: patent US20250043259, “ENDONUCLEASES THAT SELECTIVELY CLEAVE SINGLE-STRANDED NUCLEIC ACIDS AND USES THEREOF” (INSTITUT NATIONAL DE LA RECHERCHE SCIENTIFIQUE, published 2025)
# T1: SsnA (NMV_0044) (Neisseria meningitidis 8013 2C4.3, UniProt Q9K1N6 Q9K1N6:1-94)
# T1 sequence: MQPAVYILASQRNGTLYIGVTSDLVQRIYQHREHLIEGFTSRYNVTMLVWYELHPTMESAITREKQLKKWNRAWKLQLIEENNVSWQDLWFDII
# Columns and labels:
# SsnA (NMV_0044) [1] = biological target: T1, SsnA (NMV_0044); test: EMSA; details: no Mg, 50 mM NaCl, 10 mM Tris pH 7.9, 37 C; 0.5 uM protein, 0.8 uM DNA
# SsnA (NMV_0044) [2] = biological target: T1, SsnA (NMV_0044); test: cleavage_in_vitro; details: 10 mM MgCl2, 37 C optimum; abolished by EDTA
# SsnA (NMV_0044) [3] = biological target: T1, SsnA (NMV_0044); test: EMSA; no Mg, 37 C; also not cleaved; details: tags: N-terminal 6xHis; label: 5'-carboxyfluorescein
# Procedure: Gel-shift (top, EMSA) and endonuclease (bottom) assays of 0.5 μM SsnA with 0.8 µM of DNA. Magnesium was omitted from the EMSA reaction mix to allow DNA binding by SsnA without nuclease activity. ssDNArev is the reverse complement of ssDNA. dsDNA is the double-stranded annealed product from ssDNA with ssDNArev. The arrow represents the recognition pattern (NTS repeat) of SsnA. Unless otherwise indicated (last well), assayed proteins were his-tagged.
# Electrophoretic mobility shift assay (EMSA). Gel shift assays, or EMSA, were performed by diluting the proteins in Diluent A (NEB) to the indicated working concentrations. 5′carboxyfluorescin-tagged oligos corresponding to genomic regions of N. meningitidis MC58 were synthesized from Sigma. When needed, complementary oligonucleotides were annealed by mixing equimolar amounts in annealing buffer (10 mM Tris-HCl PH8, 50 mM NaCl, 1 mM EDTA), incubating them 5 minutes at 95° C. and letting them slowly cool down. For the gel-shift assays, proteins were mixed with the fluorescent oligonucleotides in a reaction buffer containing 50 mM NaCl, 10 mM Tris-HCl, 100 μg/ml BSA, pH7.9. The mixes were incubated at 37° C. for 30 minutes before adding native loading dye. Samples were resolved on native 10% TBE-acrylamide gels and imaged with a Typhoon FLA9500 scanner. […]
# SsnA (NMV_0044) [4] = biological target: T1, SsnA (NMV_0044); test: EMSA; binding preserved, cleavage reduced to varying extents; details: tags: N-terminal 6xHis; label: 5'-carboxyfluorescein; hairpin
# Procedure: (§1) Electrophoretic mobility shift assay (EMSA). Gel shift assays, or EMSA, were performed by diluting the proteins in Diluent A (NEB) to the indicated working concentrations. 5′carboxyfluorescin-tagged oligos corresponding to genomic regions of N. meningitidis MC58 were synthesized from Sigma. When needed, complementary oligonucleotides were annealed by mixing equimolar amounts in annealing buffer (10 mM Tris-HCl PH8, 50 mM NaCl, 1 mM EDTA), incubating them 5 minutes at 95° C. and letting them slowly cool down. For the gel-shift assays, proteins were mixed with the fluorescent oligonucleotides in a reaction buffer containing 50 mM NaCl, 10 mM Tris-HCl, 100 μg/ml BSA, pH7.9. The mixes were incubated at 37° C. for 30 minutes before adding native loading dye. Samples were resolved on native 10% TBE-acrylamide gels and imaged with a Typhoon FLA9500 scanner. For branched DNA binding assays, a similar approach was used but the gel was stained with GelStain (Biotium) and imaged on a GelDoc (BioRad) since the oligonucleotides were not fluorescently labelled.
# SsnA (NMV_0044) [5] = biological target: T1, SsnA (NMV_0044); test: EMSA; unable to interact with RNA; details: tags: N-terminal 6xHis
# Procedure: as §1
Molecule,binding result (SsnA (NMV_0044) [4]),further results
"ssDNA (100 nt, NTS)",–,binding (SsnA (NMV_0044) [1]): 100 % bound; activity (SsnA (NMV_0044) [2]): 100 % cleaved
"ssDNArev (ssDNA, [none]) DNA: CCAGGTCTGTCGGTGCGGAAACTTATCGGATAAAACGGTTTCTTTAGATTTTACGTTCTAGATTCCCGCTTTCGCGGGAATGACGGAATATTTTTGAATT",–,binding result (SsnA (NMV_0044) [3]): no binding
"dsDNA (100 bp, NTS) (dsDNA) DNA 1: AATTCAAAAATATTCCGTCATTCCCGCGAAAGCGGGAATCTAGAACGTAAAATCTAAAGAAACCGTTTTATCCGATAAGTTTCCGCACCGACAGACCTGG DNA 2: CCAGGTCTGTCGGTGCGGAAACTTATCGGATAAAACGGTTTCTTTAGATTTTACGTTCTAGATTCCCGCTTTCGCGGGAATGACGGAATATTTTTGAATT",–,binding result (SsnA (NMV_0044) [3]): no binding
NTS#3 (ssDNA) DNA: ATCCCGTCATTCCCGCCACTTTCCGTCATTCCCGCGAAAGCGGGAATCTAGAATCTCGGACTTTCAGATAATCTTTGAATATTGCTGTTGTTCTAAGGTC,binds,–
NTS#2 (ssDNA) DNA: GTCATTCCCACGAACCTACATTCCGTCATTCCCACGAAAGTGGGAATCTAGAATCTCTAAAGCTTCAGCTAACCTTTGAATATTGCTGTTGTTCTAAGGT,binds,–
NTS#4 (ssDNA) DNA: TAAATGACCCCAACTTAAAATCCCGTCATTCCCGCGCAGGCGGGAATCTAGGTCTGTCGGTGCGGAAACTTATCGGGTAAAACGGTTTCTTGAGATTTTG,binds,–
NTS#5 (ssDNA) DNA: GTCATTCCCACGAACCTACATTCCGTCATTCCCACGAAAGTGGGAATCCAGTGCGTTGAGTTTCAGTCATTTCCAATAAATTGCCTTAGTATTGAATGTC,binds,–
AAAAAUAUUCCGUCAUUCCCGCGAAAGCGGGAAUCUA (ssRNA) [RNA37],–,binding result (SsnA (NMV_0044) [5]): no binding
NTS#1 (ssDNA) DNA: GAGGTTTCGGGCAACTTCTAAACCGTCATTCCCGCGCAGGCGGGAATCCAGACCATTGGACAGCAGCAATATTCAAAGATTATCTGAAAGTCCGGGATTC,binds,–
